# From article PMC7102498
# Target: T1, QseB (Escherichia coli ECDCM2 (clinical bovine mastitis isolate)) (UniProt P52076)
# T1 sequence: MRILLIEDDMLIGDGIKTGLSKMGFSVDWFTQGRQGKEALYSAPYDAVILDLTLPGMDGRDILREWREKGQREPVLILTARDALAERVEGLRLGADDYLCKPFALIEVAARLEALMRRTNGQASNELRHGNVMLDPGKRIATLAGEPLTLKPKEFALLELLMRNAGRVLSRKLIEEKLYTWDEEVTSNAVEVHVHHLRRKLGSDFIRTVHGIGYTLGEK
# Assay: EMSA
sequence,measurement,value
ATGTTCGTGAATTTACAGGCGTTAGATTTACATACATTTGTGAATGTATGTACCATAGCACGACGATAATATAAACGCAGCAATGGGTTTATTAACTTTTGACCATTGACCAATTTGAAATCGGACACTCGAGGTTTACAT (double strand) [p-acrA promoter],binding,no binding
